Substrate in this data set: OC[C@H]1O[C@H](F)[C@H](O)[C@@H](O)[C@@H]1O
As to the kind of experiment: fluoride release, colorimetric (Alfusone), Michaelis-Menten fit. Type of data set: biochemical, Gluconobacter oxydans. The conditions noted are these: 130 mM sodium acetate pH 4.2, 35 °C, 0.2 mg/ml BSA. An excerpt:
fluoride release, colorimetric (Alfusone), Michaelis-Menten fit on Δ382C (DDase-Δ382C)

B1: Δ382C (DDase-Δ382C) (Gluconobacter oxydans) (protein)
chain: MADNSDEQFVASDYTLLGDATDDPNGMVDMPAGQEPATTNAVPSGVEYNFLAATAGYYTVSFAYQNTANAAAYEQLSINGQNEPGVVEFDQTSGASTGTAYASVYLKAGLNSVELNNQTTDETNGLTPVPEDQLQASPAFQIGTSTVAAGASPSQETSAQSLAISNQTDMQAFVQGESMAPKQQWTFGPSLSELHVGSNDELNQLDFNAVWFRNVTPGQQAETYSPYFKSNESFDANGVLHVNYGAYSPTGQALPVQIQATYANVPNENLIVENLSLTNQNASGTQPLVWDVMNATGINPGEVSSTTWDPTHNAWIVTEDQGSGKSPLYLAIGDYQVSNSTHAAGVDGVNVRGSYSLSSGASGNPSLNAPDQGVIGGFENNGTMVGSSSGASGTNLAVGTTDSDVTLNPGQTVDLSYYLSTATSLSQLDANLDKYTNTVGSTTSSTPMTDATGASAASSWTQQTATAWDDTLNQAYNLAGSTETSGQAATAASGQTLDPTSSAAAQSAYRSSLINILQAQSPEYGSFMASTNPSYEYKVWVRDSAATAIGLDDAGLTQPADKFWRWMASVEQNGMNATYSGNASGTFSTNYGEFDQNLPIGFVAPENDSQGLFLIGSYRHYEQMLSEGQTQQAQSFISDPTVRQALVNSANWIQENIGSNGLGPADYSIWEDMYGYHTFTQVTYAEGLNAASQLASAMGEGNQAQTWATGAETIKDAILRPTTASTPGLWNAQEGHFVEMINPNGTIDNTIDADTNIAAVFGLVSPTSIYATENAQAVENALTQDNFGLSRYQNETFYQSSQWSPGGTYEAQGISPSWPQMTAYDSIVSMDSGNTTQANNDLSWIEQSYDNGGTPPGESYDWARGQPIESTSSEPVTASWYVQDLLNSTGQTSTLMPAITGQ
notes: C-terminal truncation Met1-Ser902 (domains N1, N2, HLH, A); N-terminal His6 tag (…) kept; E. coli BL21-CodonPlus(DE3)-RIL; 921 residues with tag; dimer 195,604 Da
Usually Km stands for the concentration of substrate that gives half-maximal velocity. In general, kcat refers to the maximal rate divided by the concentration of active sites. The kcat/Km is the second-order rate constant that governs catalysis at low substrate concentration. B1: the Km was 40 ± 4 mM, the kcat was determined as 15 ± 1 s⁻¹ and the kcat/Km worked out at 380 M⁻¹ s⁻¹.

B2: Δ382C (DDase-Δ382C) (Gluconobacter oxydans; E671Q) (protein)
chain: MADNSDEQFVASDYTLLGDATDDPNGMVDMPAGQEPATTNAVPSGVEYNFLAATAGYYTVSFAYQNTANAAAYEQLSINGQNEPGVVEFDQTSGASTGTAYASVYLKAGLNSVELNNQTTDETNGLTPVPEDQLQASPAFQIGTSTVAAGASPSQETSAQSLAISNQTDMQAFVQGESMAPKQQWTFGPSLSELHVGSNDELNQLDFNAVWFRNVTPGQQAETYSPYFKSNESFDANGVLHVNYGAYSPTGQALPVQIQATYANVPNENLIVENLSLTNQNASGTQPLVWDVMNATGINPGEVSSTTWDPTHNAWIVTEDQGSGKSPLYLAIGDYQVSNSTHAAGVDGVNVRGSYSLSSGASGNPSLNAPDQGVIGGFENNGTMVGSSSGASGTNLAVGTTDSDVTLNPGQTVDLSYYLSTATSLSQLDANLDKYTNTVGSTTSSTPMTDATGASAASSWTQQTATAWDDTLNQAYNLAGSTETSGQAATAASGQTLDPTSSAAAQSAYRSSLINILQAQSPEYGSFMASTNPSYEYKVWVRDSAATAIGLDDAGLTQPADKFWRWMASVEQNGMNATYSGNASGTFSTNYGEFDQNLPIGFVAPENDSQGLFLIGSYRHYEQMLSEGQTQQAQSFISDPTVRQALVNSANWIQENIGSNGLGPADYSIWQDMYGYHTFTQVTYAEGLNAASQLASAMGEGNQAQTWATGAETIKDAILRPTTASTPGLWNAQEGHFVEMINPNGTIDNTIDADTNIAAVFGLVSPTSIYATENAQAVENALTQDNFGLSRYQNETFYQSSQWSPGGTYEAQGISPSWPQMTAYDSIVSMDSGNTTQANNDLSWIEQSYDNGGTPPGESYDWARGQPIESTSSEPVTASWYVQDLLNSTGQTSTLMPAITGQ
notes: as for B1
Consider B2, for which the Km was determined as 1.5 ± 0.1 mM, the catalytic constant (kcat) is 0.025 ± 0.002 s⁻¹ and the catalytic efficiency (kcat/Km) was 17 M⁻¹ s⁻¹.

For the origin of these results see article PMC12446779, “Structural basis of transglucosylation in dextran dextrinase, a homolog of anomer-inverting GH15 glucoside hydrolases” (The Journal of Biological Chemistry, 2025).
